From publication doi:10.1101/2022.04.07.487047 (bioRxiv, 2022)
Numbering of substitutions follows the chain as printed. Names may count otherwise.

T1: CydD, subunit of the heterodimeric ABC transporter CydDC (Escherichia coli, UniProt P29018 1-588)
T1 sequence: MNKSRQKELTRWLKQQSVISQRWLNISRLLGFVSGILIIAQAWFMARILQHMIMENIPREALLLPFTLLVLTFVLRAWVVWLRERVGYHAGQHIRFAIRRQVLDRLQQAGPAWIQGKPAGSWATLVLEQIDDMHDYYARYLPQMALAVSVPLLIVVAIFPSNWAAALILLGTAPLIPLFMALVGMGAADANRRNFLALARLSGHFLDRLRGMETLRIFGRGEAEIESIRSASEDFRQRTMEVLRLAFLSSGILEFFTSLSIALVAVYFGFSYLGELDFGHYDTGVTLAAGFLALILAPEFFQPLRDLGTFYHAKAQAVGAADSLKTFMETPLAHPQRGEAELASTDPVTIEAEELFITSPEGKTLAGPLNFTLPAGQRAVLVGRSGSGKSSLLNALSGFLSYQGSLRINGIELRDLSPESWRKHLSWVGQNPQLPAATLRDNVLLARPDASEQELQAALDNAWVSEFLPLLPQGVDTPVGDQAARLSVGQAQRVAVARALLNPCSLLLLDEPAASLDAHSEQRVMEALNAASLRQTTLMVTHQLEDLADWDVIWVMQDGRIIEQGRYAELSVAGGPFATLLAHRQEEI

B1: CydC, subunit of the heterodimeric ABC transporter CydDC (wild type) (natural protein, Escherichia coli)
chain: MRALLPYLALYKRHKWMLSLGIVLAIVTLLASIGLLTLSGWFLSASAVAGVAGLYSFNYMLPAAGVRGAAITRTAGRYFERLVSHDATFRVLQHLRIYTFSKLLPLSPAGLARYRQGELLNRVVADVDTLDHLYLRVISPLVGAFVVIMVVTIGLSFLDFTLAFTLGGIMLLTLFLMPPLFYRAGKSTGQNLTHLRGQYRQQLTAWLQGQAELTIFGASDRYRTQLENTEIQWLEAQRRQSELTALSQAIMLLIGALAVILMLWMASGGVGGNAQPGALIALFVFCALAAFEALAPVTGAFQHLGQVIASAVRISDLTDQKPEVTFPDTQTRVADRVSLTLRDVQFTYPEQSQQALKGISLQVNAGEHIAILGRTGCGKSTLLQQLTRAWDPQQGEILLNDSPIASLNEAALRQTISVVPQRVHLFSATLRDNLLLASPGSSDEALSEILRRVGLEKLLEDAGLNSWLGEGGRQLSGGELRRLAIARALLHDAPLVLLDEPTEGLDATTESQILELLAEMMREKTVLMVTHRLRGLSRFQQIIVMDNGQIIEQGTHAELLARQGRYYQFKQGL
B2: CydC H85A (histidine to alanine exchange at position 85), subunit of CydDC^H85A (natural protein, Escherichia coli)
chain: B1 chain with H85A
B3: CydC E500Q (Walker B glutamate to glutamine mutant), subunit of CydDC^E500Q (natural protein, Escherichia coli)
chain: B1 chain with E500Q

Molecular target: T1, CydD, subunit of the heterodimeric ABC …
Experiment: cryo-EM structure

Binding result, binds:
B1, B2, B3
